Experimental data reported in patent US20160264649A1.

Key:
Assay in all cases: cell-based or functional assay
[1] = target: HIV-1 Env of isolate MGRM-F1-014 (subtype F) (HIV-1)
[2] = target: HIV-1 Env of isolate 92WR026 (subtype A) (HIV-1)
[3] = target: HIV-1 Env of isolate MGRM-D-004 (subtype D) (HIV-1)
[4] = target: HIV-1 Env of isolate MGRM-AE-005 (subtype AE) (HIV-1)
[5] = target: HIV-1 Env of isolate MGRM-F1-020 (subtype F) (HIV-1)
[6] = target: HIV-1 Env of isolate MGRM-AE-004 (subtype AE) (HIV-1)
[7] = target: HIV-1 Env of isolate MGRM-AE-001 (subtype AE) (HIV-1)
[8] = target: HIV-1 Env of isolate MGRM-D-003 (subtype D) (HIV-1)
[9] = target: HIV-1 Env of isolate CMU02 (subtype AE) (HIV-1)
[10] = target: HIV-1 Env of isolate 92UG031 (subtype A) (HIV-1)
[11] = target: HIV-1 Env of isolate MGRM-D-016 (subtype D) (HIV-1)
[12] = target: HIV-1 Env of isolate MGRM-D-012 (subtype D) (HIV-1)
[13] = target: HIV-1 Env of isolate MGRM-D-020 (subtype D) (HIV-1)
[14] = target: HIV-1 Env of isolate MGRM-F1-016 (subtype F) (HIV-1)
[15] = target: HIV-1 Env of isolate 92WR020 (subtype A) (HIV-1)
[16] = target: HIV-1 Env of isolate MGRM-AE-003 (subtype AE) (HIV-1)
[17] = target: HIV-1 Env of isolate 92WR009 (subtype A) (HIV-1)
[18] = target: HIV-1 Env of isolate MGRM-F1-006 (subtype F) (HIV-1)
[19] = target: HIV-1 Env of isolate MGRM-AE-008 (subtype AE) (HIV-1)
[20] = target: HIV-1 Env of isolate MGRM-D-018 (subtype D) (HIV-1)
[21] = target: HIV-1 Env of isolate MGRM-F1-012 (subtype F) (HIV-1)
[22] = target: HIV-1 Env of isolate MGRM-AE-002 (subtype AE) (HIV-1)
[23] = target: HIV-1 Env of isolate VLGCA1 (subtype A) (HIV-1)
[24] = target: HIV-1 Env of isolate MGRM-D-008 (subtype D) (HIV-1)
[25] = target: HIV-1 Env of isolate 93WR029 (subtype A) (HIV-1)
[26] = target: HIV-1 Env of isolate MGRM-F1-015 (subtype F) (HIV-1)
[27] = target: HIV-1 Env of isolate MGRM-D-005 (subtype D) (HIV-1)
[28] = target: HIV-1 Env of isolate 92WR024 (subtype A) (HIV-1)
[29] = target: HIV-1 Env of isolate 94 KE 105 (subtype AC) (HIV-1)
[30] = target: HIV-1 Env of isolate MGRM-F1-022 (subtype F) (HIV-1)
[31] = target: HIV-1 Env of isolate 94UG103 (subtype A) (HIV-1)
[32] = target: HIV-1 Env of isolate MGRM-D-011 (subtype D) (HIV-1)
[33] = target: HIV-1 Env of isolate 93UG077 (subtype A) (HIV-1)
[34] = target: HIV-1 Env of isolate MGRM-F1-023 (subtype F) (HIV-1)
[35] = target: HIV-1 Env of isolate MGRM-D-002 (subtype D) (HIV-1)
[36] = target: HIV-1 Env of isolate MGRM-D-001 (subtype D) (HIV-1)
[37] = target: HIV-1 Env of isolate 92WR021 (subtype A) (HIV-1)
[38] = target: HIV-1 Env of isolate MGRM-F1-021 (subtype F) (HIV-1)
[39] = target: HIV-1 Env of isolate MGRM-D-021 (subtype D) (HIV-1)
[40] = target: HIV-1 Env of isolate MGRM-D-026 (subtype D) (HIV-1)
[41] = target: HIV-1 Env of isolate MGRM-D-014 (subtype D) (HIV-1)
[42] = target: HIV-1 Env of isolate MGRM-F1-013 (subtype F) (HIV-1)
[43] = target: HIV-1 Env of isolate MGRM-D-028 (subtype D) (HIV-1)
[44] = target: HIV-1 Env of isolate 92UG037 (subtype A) (HIV-1)
[45] = target: HIV-1 Env of isolate MGRM-D-024 (subtype D) (HIV-1)
[46] = target: HIV-1 Env of isolate MGRM-F1-017 (subtype F) (HIV-1)
[47] = target: HIV-1 Env of isolate MGRM-AE-006 (subtype AE) (HIV-1)
[48] = target: HIV-1 Env of isolate MGRM-F1-010 (subtype F) (HIV-1)
[49] = target: HIV-1 Env of isolate 92TH021 (subtype AE) (HIV-1)
[50] = target: HIV-1 Env of isolate MGRM-F1-004 (subtype F) (HIV-1)
[51] = target: HIV-1 Env of isolate MGRM-D-022 (subtype D) (HIV-1)
[52] = target: HIV-1 Env of isolate MGRM-AE-007 (subtype AE) (HIV-1)
[53] = target: HIV-1 Env of isolate MGRM-D-013 (subtype D) (HIV-1)
[54] = target: HIV-1 Env of isolate MGRM-D-019 (subtype D) (HIV-1)
[55] = target: HIV-1 Env of isolate MGRM-F1-018 (subtype F) (HIV-1)
[56] = target: HIV-1 Env of isolate MGRM-D-029 (subtype D) (HIV-1)
[57] = target: HIV-1 Env of isolate 92UG114 (subtype D) (HIV-1)
[58] = target: HIV-1 Env of isolate MGRM-F1-008 (subtype F) (HIV-1)

Sequence of PGT-143 (4980_N08) (antibody) (VH): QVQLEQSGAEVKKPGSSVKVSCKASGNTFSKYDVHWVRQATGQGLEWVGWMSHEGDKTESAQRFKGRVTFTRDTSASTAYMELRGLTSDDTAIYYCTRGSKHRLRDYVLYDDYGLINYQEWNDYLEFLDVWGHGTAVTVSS
Sequence of PGT-143 (4980_N08) (antibody) (VL): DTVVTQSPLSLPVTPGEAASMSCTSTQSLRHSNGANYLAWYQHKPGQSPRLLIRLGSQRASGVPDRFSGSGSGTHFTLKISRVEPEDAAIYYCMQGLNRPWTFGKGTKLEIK

PGT-143 (4980_N08) (antibody)
IC50 (pseudovirus neutralization) [1]: 0.001 µg/mL
IC50 (pseudovirus neutralization) [2]: 5.36 µg/mL
IC50 (pseudovirus neutralization) [3]: > 50 µg/mL
IC50 (pseudovirus neutralization) [4]: > 50 µg/mL
IC50 (pseudovirus neutralization) [5]: 0.98 µg/mL
IC50 (pseudovirus neutralization) [6]: 0.002 µg/mL
IC50 (pseudovirus neutralization) [7]: > 50 µg/mL
IC50 (pseudovirus neutralization) [8]: > 50 µg/mL
IC50 (pseudovirus neutralization) [9]: > 50 µg/mL
IC50 (pseudovirus neutralization) [10]: 0.095 µg/mL
IC50 (pseudovirus neutralization) [11]: > 50 µg/mL
IC50 (pseudovirus neutralization) [12]: > 50 µg/mL
IC50 (pseudovirus neutralization) [13]: > 50 µg/mL
IC50 (pseudovirus neutralization) [14]: > 50 µg/mL
IC50 (pseudovirus neutralization) [15]: > 50 µg/mL
IC50 (pseudovirus neutralization) [16]: > 50 µg/mL
IC50 (pseudovirus neutralization) [17]: 0.01 µg/mL
IC50 (pseudovirus neutralization) [18]: 12.3 µg/mL
IC50 (pseudovirus neutralization) [19]: 0.135 µg/mL
IC50 (pseudovirus neutralization) [20]: > 50 µg/mL
IC50 (pseudovirus neutralization) [21]: > 50 µg/mL
IC50 (pseudovirus neutralization) [22]: > 50 µg/mL
IC50 (pseudovirus neutralization) [23]: 17.4 µg/mL
IC50 (pseudovirus neutralization) [24]: 0.153 µg/mL
IC50 (pseudovirus neutralization) [25]: 0.053 µg/mL
IC50 (pseudovirus neutralization) [26]: > 50 µg/mL
IC50 (pseudovirus neutralization) [27]: 1.41 µg/mL
IC50 (pseudovirus neutralization) [28]: 0.122 µg/mL
IC50 (pseudovirus neutralization) [29]: 0.368 µg/mL
IC50 (pseudovirus neutralization) [30]: 0.082 µg/mL
IC50 (pseudovirus neutralization) [31]: > 50 µg/mL
IC50 (pseudovirus neutralization) [32]: > 50 µg/mL
IC50 (pseudovirus neutralization) [33]: > 50 µg/mL
IC50 (pseudovirus neutralization) [34]: 0.972 µg/mL
IC50 (pseudovirus neutralization) [35]: > 50 µg/mL
IC50 (pseudovirus neutralization) [36]: > 50 µg/mL
IC50 (pseudovirus neutralization) [37]: > 50 µg/mL
IC50 (pseudovirus neutralization) [38]: > 50 µg/mL
IC50 (pseudovirus neutralization) [39]: > 50 µg/mL
IC50 (pseudovirus neutralization) [40]: 44.6 µg/mL
IC50 (pseudovirus neutralization) [41]: 0.009 µg/mL
IC50 (pseudovirus neutralization) [42]: 0.013 µg/mL
IC50 (pseudovirus neutralization) [43]: > 50 µg/mL
IC50 (pseudovirus neutralization) [44]: 0.854 µg/mL
IC50 (pseudovirus neutralization) [45]: > 50 µg/mL
IC50 (pseudovirus neutralization) [46]: 26.3 µg/mL
IC50 (pseudovirus neutralization) [47]: > 50 µg/mL
IC50 (pseudovirus neutralization) [48]: > 50 µg/mL
IC50 (pseudovirus neutralization) [49]: 0.003 µg/mL
IC50 (pseudovirus neutralization) [50]: 0.036 µg/mL
IC50 (pseudovirus neutralization) [51]: > 50 µg/mL
IC50 (pseudovirus neutralization) [52]: 13.6 µg/mL
IC50 (pseudovirus neutralization) [53]: 0.386 µg/mL
IC50 (pseudovirus neutralization) [54]: 0.277 µg/mL
IC50 (pseudovirus neutralization) [55]: 0.701 µg/mL
IC50 (pseudovirus neutralization) [56]: 0.2 µg/mL
IC50 (pseudovirus neutralization) [57]: > 50 µg/mL
IC50 (pseudovirus neutralization) [58]: 0.189 µg/mL
